Data as given in article PMC3531269.

Legend:
[1] = molecular target: HIV-1 HXB2 Env (gp120/gp41) expressed on the surface of CHO-WT cells (HIV-1 HXB2) (UniProt P04578)
[2] = molecular target: N-peptide N36 (aa 546-581 of HIV-1 HXB2 gp41 NHR) (HIV-1 HXB2) (UniProt P04578); assay: ELISA

Substance | IC50 of HIV-1 replication, Bal (B, R5) [1] [µM] | IC50 of HIV-1 replication, IIIB (B, X4) [1] [µM] | IC50 of HIV-1 replication, primary isolate 92TH009 (E/A, R5) [1] [µM] | IC50 of HIV-1 replication, primary isolate 92US657 (B, R5) [1] [µM] | IC50 of HIV-1 replication, primary isolate 93 MW959 (C, R5) [1] [µM] | IC90 of HIV-1 replication, Bal (B, R5) [1] [µM] | IC90 of HIV-1 replication, IIIB (B, X4) [1] [µM] | IC90 of HIV-1 replication, primary isolate 92TH009 (E/A, R5) [1] [µM] | IC90 of HIV-1 replication, primary isolate 92US657 (B, R5) [1] [µM] | IC90 of HIV-1 replication, primary isolate 93 MW959 (C, R5) [1] [µM] | IC50 [2] [µM]
T1144 (C-peptide, next generation HIV fusion inhibitor) | 0.00403 | 0.00213 | 0.00136 | 0.0132 | 0.00235 | 0.0281 | 0.0352 | 0.00621 | 0.0423 | 0.0163 | 
2DLT (bivalent recombinant protein: D1D2 domain of CD4 linked to T1144 by a 35-mer linker) (designed binder) | 0.0108 | 0.00564 | 0.0175 | 0.0172 | 0.0189 | 0.0444 | 0.0288 | 0.0719 | 0.0519 | 0.0489 | 0.5
